Data published in patent US20180318386A1, “PEPTIDES AND METHODS OF TREATING ENDOMETRIOSIS USING THE SAME” (BIOINCEPT, LLC, priority 2014, published 2018).

Columns and labels:
Assay in all cases: PIF affinity resin pull-down, CD14+ cell lysate, LC-MS/MS count
[1] = biological target: 14-3-3 protein eta (human) (UniProt Q04917)
[2] = biological target: 14-3-3 protein zeta/delta (human) (UniProt P63104)
[3] = biological target: 78 kDa glucose-regulated protein (human) (UniProt P11021)
[4] = biological target: Actinin alpha 1 isoform 3 (human) (UniProt P12814)
Annexin A1 (human) = Annexin A1 (human) (UniProt P04083)
[5] = biological target: Centrosomal protein of 120 kDa (Fragment) (human) (UniProt Q8N960)
Coronin-1A (human) = Coronin-1A (human) (UniProt P31146)
Gelsolin (human) = Gelsolin (human) (UniProt P06396)
[6] = biological target: Heat shock protein HSP 90-beta (human) (UniProt P08238)
[7] = biological target: Isoform 1 of Vinculin (human) (UniProt P18206)
[8] = biological target: Isoform 2 of Adenylyl cyclase-associated protein 1 (human) (UniProt Q01518)
[9] = biological target: Isoform H14 of Myeloperoxidase (human) (UniProt P05164)
[10] = biological target: Isoform Short of 14-3-3 protein beta/alpha (human) (UniProt P31946)
[11] = biological target: Lymphocyte-specific protein 1 (human) (UniProt P33241)
[12] = biological target: Myeloid cell nuclear differentiation antigen (human) (UniProt P41218)
Myosin-9 (human) = Myosin-9 (human) (UniProt P35579)
[13] = biological target: Nuclear autoantigenic sperm protein (human) (UniProt P49321)
Plastin-2 (human) = Plastin-2 (human) (UniProt P13796)
Protein S100-A8 (human) = Protein S100-A8 (human) (UniProt P05109)
[14] = biological target: Protein disulfide-isomerase (human) (UniProt P07237)
[15] = biological target: Transitional endoplasmic reticulum ATPase (human) (UniProt P55072)
[16] = biological target: Tropomyosin alpha-3 chain (human) (UniProt P06753)
[17] = biological target: Tropomyosin alpha-4 chain (human) (UniProt P67936)
[18] = biological target: Tubulin alpha-4A chain (human) (UniProt P68366)

Tropomyosin alpha-4 chain (human), sequence (P67936 2-248 limits assumed): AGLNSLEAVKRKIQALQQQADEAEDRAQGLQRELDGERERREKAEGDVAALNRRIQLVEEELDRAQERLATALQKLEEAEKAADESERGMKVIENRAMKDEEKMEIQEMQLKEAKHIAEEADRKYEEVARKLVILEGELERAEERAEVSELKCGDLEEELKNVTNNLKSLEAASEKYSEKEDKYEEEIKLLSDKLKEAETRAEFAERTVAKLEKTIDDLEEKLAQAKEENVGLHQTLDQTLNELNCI
Protein disulfide-isomerase (human), sequence (P07237 18-508 limits assumed): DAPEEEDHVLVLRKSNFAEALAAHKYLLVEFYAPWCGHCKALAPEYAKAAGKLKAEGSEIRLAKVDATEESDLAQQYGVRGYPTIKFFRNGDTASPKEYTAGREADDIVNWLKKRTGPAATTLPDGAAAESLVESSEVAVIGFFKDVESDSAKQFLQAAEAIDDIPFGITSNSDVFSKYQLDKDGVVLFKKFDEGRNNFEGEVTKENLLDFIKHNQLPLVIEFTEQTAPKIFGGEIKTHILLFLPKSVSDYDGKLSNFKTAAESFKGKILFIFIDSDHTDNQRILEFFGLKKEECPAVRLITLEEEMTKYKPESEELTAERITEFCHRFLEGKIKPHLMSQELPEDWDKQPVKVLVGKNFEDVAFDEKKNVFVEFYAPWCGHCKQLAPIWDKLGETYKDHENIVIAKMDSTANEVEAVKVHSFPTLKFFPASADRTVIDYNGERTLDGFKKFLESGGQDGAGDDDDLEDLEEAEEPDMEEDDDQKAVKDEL
Heat shock protein HSP 90-beta (human), sequence (P08238 2-724 limits assumed): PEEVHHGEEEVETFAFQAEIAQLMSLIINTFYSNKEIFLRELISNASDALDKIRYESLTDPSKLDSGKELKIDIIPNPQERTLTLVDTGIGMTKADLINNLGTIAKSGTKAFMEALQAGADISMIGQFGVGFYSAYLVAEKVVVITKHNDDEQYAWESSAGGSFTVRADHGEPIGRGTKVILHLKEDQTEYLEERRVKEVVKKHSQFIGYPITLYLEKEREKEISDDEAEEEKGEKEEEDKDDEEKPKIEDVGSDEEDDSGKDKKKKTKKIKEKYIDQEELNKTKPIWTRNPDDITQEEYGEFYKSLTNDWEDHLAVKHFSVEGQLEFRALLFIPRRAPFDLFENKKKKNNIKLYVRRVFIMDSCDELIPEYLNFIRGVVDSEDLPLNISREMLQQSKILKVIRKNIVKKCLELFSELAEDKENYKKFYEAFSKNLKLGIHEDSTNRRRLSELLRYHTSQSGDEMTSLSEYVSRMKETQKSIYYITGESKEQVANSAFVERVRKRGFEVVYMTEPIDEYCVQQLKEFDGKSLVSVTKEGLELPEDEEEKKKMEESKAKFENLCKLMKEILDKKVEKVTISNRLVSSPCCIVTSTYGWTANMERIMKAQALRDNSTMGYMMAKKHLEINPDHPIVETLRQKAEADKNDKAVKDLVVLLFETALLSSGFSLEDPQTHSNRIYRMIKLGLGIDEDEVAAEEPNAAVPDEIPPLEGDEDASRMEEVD
Annexin A1 (human), sequence (P04083 2-346 limits assumed): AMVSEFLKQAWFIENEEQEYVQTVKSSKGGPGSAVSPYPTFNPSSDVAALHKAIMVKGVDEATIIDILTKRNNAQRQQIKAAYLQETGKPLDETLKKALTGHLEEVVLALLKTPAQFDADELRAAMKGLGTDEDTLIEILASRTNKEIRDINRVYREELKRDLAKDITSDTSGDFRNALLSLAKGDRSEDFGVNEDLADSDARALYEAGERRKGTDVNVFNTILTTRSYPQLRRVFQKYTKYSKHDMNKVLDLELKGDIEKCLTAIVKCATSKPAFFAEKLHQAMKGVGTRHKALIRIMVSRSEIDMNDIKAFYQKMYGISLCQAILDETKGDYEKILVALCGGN
Isoform 1 of Vinculin (human), sequence (P18206 other isoform, or with tags, fused parts or gaps limits assumed): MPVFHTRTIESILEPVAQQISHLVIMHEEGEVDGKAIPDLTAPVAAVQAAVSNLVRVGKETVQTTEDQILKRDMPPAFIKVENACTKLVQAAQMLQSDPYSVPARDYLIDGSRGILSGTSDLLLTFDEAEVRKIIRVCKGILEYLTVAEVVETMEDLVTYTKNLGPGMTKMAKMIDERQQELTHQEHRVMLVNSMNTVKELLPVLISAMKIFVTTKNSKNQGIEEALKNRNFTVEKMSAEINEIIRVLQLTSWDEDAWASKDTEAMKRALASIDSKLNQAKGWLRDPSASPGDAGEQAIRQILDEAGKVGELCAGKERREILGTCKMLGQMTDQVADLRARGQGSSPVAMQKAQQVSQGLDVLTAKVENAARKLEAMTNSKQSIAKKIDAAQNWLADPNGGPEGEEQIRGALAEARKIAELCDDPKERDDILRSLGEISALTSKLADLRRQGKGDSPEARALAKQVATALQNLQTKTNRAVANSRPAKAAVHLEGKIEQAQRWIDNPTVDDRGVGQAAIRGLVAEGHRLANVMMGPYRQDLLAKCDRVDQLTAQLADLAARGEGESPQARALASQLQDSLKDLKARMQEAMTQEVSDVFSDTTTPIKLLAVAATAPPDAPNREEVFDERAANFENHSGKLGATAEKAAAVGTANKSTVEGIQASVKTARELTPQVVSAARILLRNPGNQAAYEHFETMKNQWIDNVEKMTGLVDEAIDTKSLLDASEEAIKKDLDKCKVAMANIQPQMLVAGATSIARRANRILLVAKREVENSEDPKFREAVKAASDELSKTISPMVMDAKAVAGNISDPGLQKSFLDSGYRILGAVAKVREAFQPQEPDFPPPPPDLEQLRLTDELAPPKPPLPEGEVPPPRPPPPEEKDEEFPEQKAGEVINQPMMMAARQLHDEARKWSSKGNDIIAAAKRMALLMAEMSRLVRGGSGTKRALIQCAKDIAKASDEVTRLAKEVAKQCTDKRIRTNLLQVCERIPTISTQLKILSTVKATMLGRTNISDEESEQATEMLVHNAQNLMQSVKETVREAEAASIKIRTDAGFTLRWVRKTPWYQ
14-3-3 protein eta (human), sequence (Q04917 2-246 limits assumed): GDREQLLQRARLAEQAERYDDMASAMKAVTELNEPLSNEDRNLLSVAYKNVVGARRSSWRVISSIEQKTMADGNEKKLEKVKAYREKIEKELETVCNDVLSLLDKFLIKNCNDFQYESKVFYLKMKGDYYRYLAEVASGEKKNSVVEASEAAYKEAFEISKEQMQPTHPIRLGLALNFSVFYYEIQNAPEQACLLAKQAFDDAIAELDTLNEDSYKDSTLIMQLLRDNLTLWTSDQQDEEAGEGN
Gelsolin (human), sequence (P06396 28-782 limits assumed): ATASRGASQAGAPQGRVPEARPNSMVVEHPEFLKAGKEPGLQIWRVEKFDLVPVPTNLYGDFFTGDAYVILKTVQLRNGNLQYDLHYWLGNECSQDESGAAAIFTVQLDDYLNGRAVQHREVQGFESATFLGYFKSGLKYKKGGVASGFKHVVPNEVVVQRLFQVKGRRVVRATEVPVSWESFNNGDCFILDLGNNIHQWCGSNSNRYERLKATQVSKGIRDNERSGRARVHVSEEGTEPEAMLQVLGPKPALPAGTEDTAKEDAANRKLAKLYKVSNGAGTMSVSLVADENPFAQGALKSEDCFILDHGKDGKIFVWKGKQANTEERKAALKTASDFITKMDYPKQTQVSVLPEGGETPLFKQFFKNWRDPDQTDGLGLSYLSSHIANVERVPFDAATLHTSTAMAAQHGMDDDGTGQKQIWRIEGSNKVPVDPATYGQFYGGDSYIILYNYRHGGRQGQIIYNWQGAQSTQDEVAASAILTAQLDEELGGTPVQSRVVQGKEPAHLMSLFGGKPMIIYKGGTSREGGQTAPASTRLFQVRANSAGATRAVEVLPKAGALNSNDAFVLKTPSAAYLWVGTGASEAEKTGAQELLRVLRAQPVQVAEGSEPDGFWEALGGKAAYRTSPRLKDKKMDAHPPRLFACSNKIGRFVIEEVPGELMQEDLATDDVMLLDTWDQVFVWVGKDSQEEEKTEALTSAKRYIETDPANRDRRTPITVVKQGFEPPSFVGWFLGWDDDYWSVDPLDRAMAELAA
14-3-3 protein zeta/delta (human), sequence (P63104 whole entry, stated change not applied): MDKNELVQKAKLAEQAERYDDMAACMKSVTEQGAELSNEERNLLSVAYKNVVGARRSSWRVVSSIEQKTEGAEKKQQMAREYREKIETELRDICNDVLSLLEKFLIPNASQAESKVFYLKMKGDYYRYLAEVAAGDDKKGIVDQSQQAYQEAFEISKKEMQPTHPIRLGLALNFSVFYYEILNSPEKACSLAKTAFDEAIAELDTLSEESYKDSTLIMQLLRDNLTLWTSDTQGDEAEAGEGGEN
Isoform Short of 14-3-3 protein beta/alpha (human), sequence (P31946 3-246 limits assumed): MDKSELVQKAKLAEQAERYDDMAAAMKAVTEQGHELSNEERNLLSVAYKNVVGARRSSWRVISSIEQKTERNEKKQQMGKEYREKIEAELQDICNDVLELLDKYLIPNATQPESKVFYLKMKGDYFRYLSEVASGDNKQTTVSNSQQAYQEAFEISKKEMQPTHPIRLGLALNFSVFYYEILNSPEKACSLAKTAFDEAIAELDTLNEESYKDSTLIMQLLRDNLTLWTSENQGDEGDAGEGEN
78 kDa glucose-regulated protein (human), sequence (P11021 19-654 limits assumed): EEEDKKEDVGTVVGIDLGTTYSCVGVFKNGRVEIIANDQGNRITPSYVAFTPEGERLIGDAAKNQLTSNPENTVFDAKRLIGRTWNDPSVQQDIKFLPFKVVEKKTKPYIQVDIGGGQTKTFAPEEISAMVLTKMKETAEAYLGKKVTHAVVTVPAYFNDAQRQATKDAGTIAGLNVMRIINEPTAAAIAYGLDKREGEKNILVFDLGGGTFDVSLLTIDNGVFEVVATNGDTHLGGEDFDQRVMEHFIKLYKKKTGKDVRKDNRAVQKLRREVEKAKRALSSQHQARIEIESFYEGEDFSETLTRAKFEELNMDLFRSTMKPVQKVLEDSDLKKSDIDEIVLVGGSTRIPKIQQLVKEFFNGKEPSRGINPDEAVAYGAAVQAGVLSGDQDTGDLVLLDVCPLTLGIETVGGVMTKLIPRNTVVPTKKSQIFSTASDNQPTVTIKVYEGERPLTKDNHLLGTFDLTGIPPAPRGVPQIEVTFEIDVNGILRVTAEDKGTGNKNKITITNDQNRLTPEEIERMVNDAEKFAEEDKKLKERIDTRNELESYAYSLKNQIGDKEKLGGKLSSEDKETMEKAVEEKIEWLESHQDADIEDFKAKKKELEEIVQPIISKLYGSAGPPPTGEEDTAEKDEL

PIF15 affinity resin (Cys-C6 spacer-PIF15 conjugated to agarose) (peptide)
3: Inject 2 [2] | Inject 2 [3] | Inject 3 [3] | Inject 3 [4] | Inject 1 (Gelsolin (human)) | Ave [7] | Inject 1 [7] | Inject 3 [7] | Ave [8] | Inject 2 [8] | Ave [10] | Inject 1 [10] | Inject 2 [10] | Inject 1 [14] | Ave [15] | Inject 1 [15] | Inject 3 [15] | Inject 2 [18]
11: Inject 1 (Myosin-9 (human))
7: Inject 2 [17]
2: Inject 3 [1] | Inject 3 (Annexin A1 (human)) | Inject 1 [5] | Ave (Coronin-1A (human)) | Inject 1 (Coronin-1A (human)) | Inject 2 (Coronin-1A (human)) | Ave (Gelsolin (human)) | Inject 1 [6] | Inject 2 [7] | Inject 3 [8] | Ave [9] | Inject 1 [9] | Inject 2 [9] | Inject 3 [9] | Ave [11] | Inject 2 [11] | Ave [12] | Inject 1 [12] | Inject 2 [12] | Inject 3 [12] | Inject 1 [13] | Inject 3 (Plastin-2 (human)) | Ave (Protein S100-A8 (human)) | Inject 1 (Protein S100-A8 (human)) | Inject 3 (Protein S100-A8 (human)) | Ave [14] | Inject 2 [14] | Inject 3 [14] | Inject 2 [15] | Inject 2 [16] | Ave [18] | Inject 1 [18]
9: Inject 2 (Myosin-9 (human))
8: Ave [17] | Inject 1 [17] | Inject 3 [17]
0: Inject 1 (Annexin A1 (human)) | Inject 2 (Annexin A1 (human)) | Inject 2 [5] | Inject 3 [5] | Inject 2 [13]
4: Ave [2] | Inject 1 [2] | Inject 3 [2] | Ave [3] | Ave [4] | Inject 2 [4] | Inject 1 [8] | Inject 3 [10] | Inject 1 [11] | Ave [16] | Inject 1 [16]
5: Inject 1 [4] | Inject 3 [16]
6: Inject 1 [3]
1: Ave [1] | Inject 1 [1] | Inject 2 [1] | Ave (Annexin A1 (human)) | Ave [5] | Inject 3 (Coronin-1A (human)) | Inject 2 (Gelsolin (human)) | Inject 3 (Gelsolin (human)) | Ave [6] | Inject 2 [6] | Inject 3 [6] | Inject 3 [11] | Ave [13] | Inject 3 [13] | Ave (Plastin-2 (human)) | Inject 1 (Plastin-2 (human)) | Inject 2 (Plastin-2 (human)) | Inject 2 (Protein S100-A8 (human)) | Inject 3 [18]
10: Ave (Myosin-9 (human)) | Inject 3 (Myosin-9 (human))
